According to patent US6307035, “BRCA1 associated polynucleotide (BAP-1) and uses therefor” (The Wistar Institute of Anatomy and Biology, dated 2001):

Experiments:
[1] = molecular target: GST (glutathione-S-transferase alone) (Schistosoma japonicum (Blood fluke), UniProt P08515 = GST); test: GST pull-down, SDS-PAGE and fluorography
full length BRCA1 = full length BRCA1 (human, UniProt P38398); test: GST pull-down, SDS-PAGE and fluorography

Binder	binding result [1]	binding result (full length BRCA1)
LexA-BRCA1-RF fusion construct (amino-terminal 100 amino acids of human BRCA1, wild type, fused to the LexA DNA-binding domain) (other) MDLSALRVEEVQNVINAMQKILECPICLELIKEPVSTKCDHIFCKFCMLKLLNQKKGPSQCPLCKNDITKRSLQESTRFSQLVEELLKIICAFQLDTGLE	no binding	–
GST-hBAP1(483-594 of SEQ ID NO: 2) fusion protein lacking the minimal interaction domain (other) QPSPTPSNESTDTASEIGSAFNSPLRSPIRSANPTRPSSPVTSHISKVLFGEDDSLLRVDCIRYNRAVRDLGPVISTGLLHLAEDGVLSPLALTEGGKGSSPSIRPIQGSQG	–	no binding
